This passage reports Km, kcat and kcat/Km results from PMC4807051, “Determinants of Cofactor Specificity for the Glucose-6-Phosphate Dehydrogenase from Escherichia coli: Simulation, Kinetics and Evolutionary Studies” (PLoS ONE, 2016).

Data set [1] deals with T1, NC(=O)c1ccc[n+]([C@@H]2O[C@H](COP(=O)(O)OP(=O)(O)OC[C@H]3O[C@@H](n4cnc5c(N)ncnc54)[C@H](O)[C@@H]3O)[C@@H](O)[C@H]2O)c1.
T1 construct: full length; N-terminal 6xHis tag cut by TEV protease (Gly-His left before Met1); plasmid pET-TEV-EcG6PDH from pETG6PDH
Kind of data set: purified protein. It is filed as biochemical, Escherichia coli. The note with it: 25°C, apparent.

Data set [2] relates to T2, NC(=O)c1ccc[n+]([C@@H]2O[C@H](COP(=O)(O)OP(=O)(O)OC[C@H]3O[C@@H](n4cnc5c(N)ncnc54)[C@H](OP(=O)(O)O)[C@@H]3O)[C@@H](O)[C@H]2O)c1.
T2 construct: full length; N-terminal 6xHis tag cut by TEV protease (Gly-His left before Met1); plasmid pET-TEV-EcG6PDH from pETG6PDH
The experiment in a line: purified protein. To be noted: 25°C, apparent. It is filed as biochemical, Escherichia coli.

For orientation: Km means the substrate concentration at which the rate is half of its maximum. By kcat is commonly meant the number of substrate molecules converted per active site and unit of time at saturation. A word on the kcat/Km: it is the second-order rate constant that governs catalysis at low substrate concentration. Take “EcG6PDH; glucose-6-phosphate dehydrogenase from Escherichia coli (Escherichia coli K-12; R50A)”: in data set [1] (near-saturating G6P (50 mM)), the Km turned out to be 14.662 ± 2.176 mM, the kcat was 171 ± 10 s⁻¹ and the kcat/Km was found to be 10000 ± 1000 M⁻¹ s⁻¹. Further, in data set [2] (near-saturating G6P (50 mM)), the Km was 0.382 ± 0.048 mM, the turnover number (kcat) turned out to be 189 ± 5 s⁻¹ and the kcat/Km amounted to 500000 ± 60000 M⁻¹ s⁻¹.
On to “EcG6PDH; glucose-6-phosphate dehydrogenase from Escherichia coli (Escherichia coli K-12; K18A/R50A)”, for which, in data set [1] (near-saturating G6P (40 mM)), the Km came out at 11.736 ± 0.804 mM, the kcat stood at 165 ± 4 s⁻¹ and the kcat/Km was found to be 10000 ± 700 M⁻¹ s⁻¹. In data set [2] (near-saturating G6P (40 mM)), the Km came out at 17.696 ± 1.453 mM, the kcat amounted to 185 ± 7 s⁻¹ and the kcat/Km was determined as 10000 ± 900 M⁻¹ s⁻¹.
Take “EcG6PDH; glucose-6-phosphate dehydrogenase from Escherichia coli (Escherichia coli K-12; K18A)”: in data set [1] (near-saturating G6P (40 mM)), the Km was 2.477 ± 0.26 mM, the kcat was found to be 109 ± 2 s⁻¹ and the kcat/Km was found to be 40000 ± 4000 M⁻¹ s⁻¹. Moreover, in data set [2] (near-saturating G6P (40 mM)), the Km was found to be 0.099 ± 0.003 mM, the kcat worked out at 143 ± 1 s⁻¹ and the catalytic efficiency (kcat/Km) came out at 1.4e+06 ± 40000 M⁻¹ s⁻¹.
Consider “EcG6PDH; glucose-6-phosphate dehydrogenase from Escherichia coli (Escherichia coli K-12)”, for which, in data set [1] (near-saturating G6P), the Km was 5.09 ± 0.4 mM, the kcat is 288 ± 5 s⁻¹ and the kcat/Km is 60000 ± 4000 M⁻¹ s⁻¹. Also, in data set [2] (near-saturating G6P), the Michaelis-Menten constant (Km) stood at 0.0075 ± 0.0008 mM, the kcat was 174 ± 2 s⁻¹ and the kcat/Km was determined as 2.32e+07 ± 2.4e+06 M⁻¹ s⁻¹.
Regarding “EcG6PDH; glucose-6-phosphate dehydrogenase from Escherichia coli (Escherichia coli K-12; K18T)”, in data set [1] (near-saturating G6P (15 mM)), the Michaelis constant (Km) came to 8.352 ± 0.307 mM, the turnover number (kcat) was 298 ± 4 s⁻¹ and the kcat/Km amounted to 30000 ± 1000 M⁻¹ s⁻¹. Further, in data set [2] (near-saturating G6P (15 mM)), the Michaelis constant (Km) was 0.243 ± 0.0053 mM, the kcat was 282 ± 1 s⁻¹ and the kcat/Km came to 1.1e+06 ± 30000 M⁻¹ s⁻¹.
